B1: Ras-related protein Rab-27A (Homo sapiens), P51159 (parent)
chain: MSDGDYDYLIKFLALGDSGVGKTSVLYQYTDGKFNSKFITTVGIDFREKRVVYRASGPDGATGRGQRIHLQLWDTAGQERFRSLTTAFFRDAMGFLLLFDLTNEQSFLNVRNWISQLQMHAYCENPDIVLCGNKSDLEDQRVVKEEEAIALAEKYGIPYFETSAANGTNISQAIEMLLDLIMKRMERCVDKSWIPEGVVRSNGHASTDQLSEEKEKGACGC
partner: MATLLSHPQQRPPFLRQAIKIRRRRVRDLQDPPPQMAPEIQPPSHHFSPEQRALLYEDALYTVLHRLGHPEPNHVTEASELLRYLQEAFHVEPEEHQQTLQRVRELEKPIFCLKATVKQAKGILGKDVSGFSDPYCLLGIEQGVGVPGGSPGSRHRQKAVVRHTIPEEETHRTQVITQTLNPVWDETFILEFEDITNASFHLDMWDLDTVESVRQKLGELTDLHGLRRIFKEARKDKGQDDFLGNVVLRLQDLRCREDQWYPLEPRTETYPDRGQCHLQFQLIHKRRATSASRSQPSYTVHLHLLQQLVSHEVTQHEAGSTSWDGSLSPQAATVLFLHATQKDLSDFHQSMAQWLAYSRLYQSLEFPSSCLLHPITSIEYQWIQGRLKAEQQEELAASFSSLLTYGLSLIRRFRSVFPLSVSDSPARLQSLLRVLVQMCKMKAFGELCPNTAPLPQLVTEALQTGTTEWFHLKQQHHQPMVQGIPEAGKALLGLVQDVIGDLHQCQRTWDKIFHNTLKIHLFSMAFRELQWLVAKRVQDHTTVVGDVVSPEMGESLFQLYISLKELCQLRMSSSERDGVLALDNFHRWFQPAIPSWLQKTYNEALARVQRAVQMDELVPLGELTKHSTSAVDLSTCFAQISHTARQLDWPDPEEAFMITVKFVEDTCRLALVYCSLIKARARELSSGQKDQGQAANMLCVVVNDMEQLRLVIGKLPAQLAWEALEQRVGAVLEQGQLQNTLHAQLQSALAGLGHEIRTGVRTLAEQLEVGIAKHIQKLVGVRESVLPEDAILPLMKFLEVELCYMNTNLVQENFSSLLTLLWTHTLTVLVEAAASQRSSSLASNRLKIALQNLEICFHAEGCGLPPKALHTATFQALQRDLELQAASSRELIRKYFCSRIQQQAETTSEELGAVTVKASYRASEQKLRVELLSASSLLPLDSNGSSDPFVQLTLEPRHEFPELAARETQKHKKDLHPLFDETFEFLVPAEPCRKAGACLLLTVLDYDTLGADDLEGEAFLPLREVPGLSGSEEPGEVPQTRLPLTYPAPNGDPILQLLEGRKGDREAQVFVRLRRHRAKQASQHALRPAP
B2: Ras-related protein Rab-27A (Homo sapiens), P51159 (parent)
chain: B1 chain
partner: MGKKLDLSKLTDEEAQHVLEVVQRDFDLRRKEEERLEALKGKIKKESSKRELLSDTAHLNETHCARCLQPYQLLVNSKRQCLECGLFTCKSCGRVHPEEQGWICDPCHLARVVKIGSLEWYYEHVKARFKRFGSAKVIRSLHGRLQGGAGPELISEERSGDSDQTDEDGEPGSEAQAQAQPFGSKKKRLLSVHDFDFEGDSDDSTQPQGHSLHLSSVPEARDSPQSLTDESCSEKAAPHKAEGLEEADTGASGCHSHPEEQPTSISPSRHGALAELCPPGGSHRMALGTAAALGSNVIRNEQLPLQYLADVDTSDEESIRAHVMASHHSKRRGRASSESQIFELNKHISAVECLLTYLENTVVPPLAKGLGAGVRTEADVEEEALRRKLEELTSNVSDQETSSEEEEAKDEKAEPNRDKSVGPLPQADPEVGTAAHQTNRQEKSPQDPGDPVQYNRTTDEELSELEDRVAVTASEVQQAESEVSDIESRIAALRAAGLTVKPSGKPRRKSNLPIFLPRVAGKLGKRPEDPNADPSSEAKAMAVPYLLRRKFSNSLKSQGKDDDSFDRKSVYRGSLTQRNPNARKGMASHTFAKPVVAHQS

Variants of: B1
Details: with un13d_human UNC13D

With A76V as the variant, how does the “effect of a mutation on the interaction” value read?
Its value is “decreasing interaction strength”.

S163R was tested. Which “effect of a mutation on the interaction” value did it give?
The value was “decreasing interaction strength”.

With Y159C as the variant, how does the “effect of a mutation on the interaction” value read?
Its value is “disrupting interaction strength”.

Variants of: B2
Details: with melph_human MLPH

With S163R as the variant, how does the “effect of a mutation on the interaction” value read?
The value was “decreasing interaction strength”.

Y159C was tested. Which “effect of a mutation on the interaction” value did it give?
The value was “with no effect”.

For A76V, which “effect of a mutation on the interaction” value is on record?
The value was “with no effect”.

Reference: IntAct's records for PubMed 25312756
